For one substance, MFI results are on record in US20260265379A1.

In this test the target is PD-L1 at the surface of transduced cells (UniProt Q9NZQ7). As to the kind of experiment: flow cytometry, CHO-PD-L1 cells. For orientation: Flow cytometry measures light scatter and fluorescence of single cells or particles in a stream.
Chain of PD-L1 at the surface of transduced cells (Q9NZQ7 19-290 limits assumed): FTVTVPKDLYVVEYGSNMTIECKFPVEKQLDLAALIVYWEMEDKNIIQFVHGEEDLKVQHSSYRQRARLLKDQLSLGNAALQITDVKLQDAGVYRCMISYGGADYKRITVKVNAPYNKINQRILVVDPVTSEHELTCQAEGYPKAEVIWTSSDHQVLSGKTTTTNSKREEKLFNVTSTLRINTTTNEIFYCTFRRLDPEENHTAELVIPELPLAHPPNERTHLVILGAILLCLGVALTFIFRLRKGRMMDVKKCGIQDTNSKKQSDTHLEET

On to Isotype Durvalumab (antibody), for which the MFI at 10 nM stood at 38000 MFI and the MFI at 100 nM worked out at 41600 MFI.
